Experimental findings from patent US20230012273A1 (Boehringer Ingelheim, published 2023) are described below.

Experiment [1] has as its target T1, full-length human SIRPαV2 (CAA71403.1) on cells (human, UniProt P78324 31-504).
T1 construct: one molecule for CHO-K1 and Expi-CHO transfectants (CAA71403.1) and for endogenous V2 on THP-1 cells and on CD14+ monocytes of V2/V2 donors; also called CHO-hSIRPαV2; αV2 WT
Put plainly: flow cytometry, competition with CD47 tetramer, CHO-K1 cells. As for the experimental part: Cells are washed, fixed, and analyzed by flow cytometry. Median fluorescent intensity is determined and used as a measure of CD47 binding.
For orientation: In flow cytometry, cells or beads pass a laser one at a time.

For experiment [2], the target named is T1, full-length human SIRPαV2 (CAA71403.1) …. Put plainly: flow cytometry, THP-1 cells (endogenous V2). As for the experimental part:
Antibody binding to human monocytic cell lines homozygous for the V1-allele (U-937) or the V2-allele (THP-1) of SIRPα is assessed. U-937 or THP-1 cells are blocked with donkey IgG and incubated on ice with increasing concentrations of antibodies for 60 minutes, washed and stained with AF647-conjugated donkey F(ab′)₂ anti-human IgG secondary reagent. Cells are washed, fixed, and analyzed by flow cytometry. Median fluorescent intensity is determined and used as a measure of antibody binding.

Experiment [3] has the same target. In words: flow cytometry, CHO-K1 cells. As for the experimental part:
(§1) Antibody binding to cells expressing SIRPα is evaluated by flow cytometry. CHO-K1 parental cells (negative control), CHO-K1 cells expressing full-length human SIRPαV1 (NP_542970.1) or CHO-K1 cells expressing full-length human SIRPαV2 (CAA71403.1) are blocked with donkey IgG and incubated on ice with increasing concentrations of antibodies for 60 minutes, washed and stained with AF647-conjugated donkey F(ab′)₂ anti-human IgG secondary reagent. Cells are washed, fixed, and analyzed by flow cytometry. Median fluorescent intensity is determined and used as a measure of antibody binding.

Experiment [4] concerns the target T2, full-length human SIRPαV1 (NP_542970.1) on cells (human, UniProt P78324 31-504).
T2 construct: one molecule for CHO-K1 and Expi-CHO transfectants (NP_542970.1) and for endogenous V1 on U-937 cells and on CD14+ monocytes of V1/V1 donors; also called CHO-hSIRPαV1; αV1 WT
Put plainly: flow cytometry, CHO-K1 cells. As for the experimental part: as §1

Experiment [5] has as its target T3, recombinant human SIRPγ extracellular domain (ECD)/His protein (NP_061026.2) (human, UniProt Q9P1W8 29-360).
T3 construct: coated on ELISA plates; also called recombinant hSIRPγ; not shown: His-tag
Put plainly: ELISA, immobilised His-tagged human SIRPγ extracellular domain (average fluorescence). As for the experimental part: A biochemical ELISA-based assay is utilized to evaluate the binding of antibodies to SIRPγ. Black, 96-well flat-bottom immunoassay plates are coated with recombinant human SIRPγ extracellular domain (ECD)/His protein (NP_061026.2) diluted in DPBS and incubated overnight at 4° C. […] Plates are washed and serially titrated antibodies are added to respective wells for an incubation of about 1-2 h at RT. After the incubation, the plates are washed and HRPO-conjugated mouse anti-human IgG secondary reagent (Jackson Immuno Research) is added to each well and incubated for about 1-2 hours. Following the final plate washing, Amplex™ red substrate is added and incubated at RT in the dark for 15-30 minutes. Fluorescence is detected (λEx/λEm=530/590 nm) using EnVision Multilabel Plate Reader (Perkin Elmer). Average fluorescence is plotted for measuring the antibody binding.
In general terms: An ELISA detects its analyte on a solid surface through an enzyme-linked reagent.

Experiment [6] has as its target T4, full-length human SIRPβ1 (NP_006056.2) on cells (human, UniProt O00241 30-398).
T4 construct: also called β1 WT
Put plainly: flow cytometry, U937 SIRPα-KO transfectants. As for the experimental part: (§2) Antibody binding to cells expressing full-length human SIRPβ1 (NP_006056.2) and SIRPβL (NP_001129316.1) is evaluated by flow cytometry. SIRPβ1- or SIRPβL-expressing U937^{SIRPα KO} cells are blocked with donkey IgG and incubated on ice with increasing concentrations of antibodies for 60 minutes, washed and stained with AF647-conjugated donkey F(ab′)₂ anti-human IgG secondary reagent. Cells are washed, fixed, and analyzed by flow cytometry. Median fluorescent intensity is determined and used as a measure of antibody binding.

Experiment [7] deals with T5, full-length human SIRPαV1 D→N on Expi-CHO cells (human, UniProt P78324 31-504).
T5 construct: the entry already carries the change (PDDV to PDNV)
In words: flow cytometry, Expi-CHO cells. As for the experimental part:
(§3) Expi-CHO parental cells are transduced with lentiviruses containing either full-length wild-type human SIRPαV1 allele (NP_542970.1) or full-length human SIRPαV1 with amino acid point mutations (Table 56) and sorted to achieve matching expression levels. These cells are blocked with donkey IgG and incubated on ice with increasing concentrations of antibodies for 60 minutes, washed and stained with AF647-conjugated donkey F(ab′)₂ anti-human IgG antibodies. Stained cells are washed, fixed, and analyzed by flow cytometry. Median fluorescent intensity is determined and used as a measure of antibody binding.

The target in experiment [8] is T6, full-length human SIRPαV1 DD→EN on Expi-CHO cells (human, UniProt P78324 31-504).
T6 construct: the entry already carries the change (PDDV to PENV)
In words: flow cytometry, Expi-CHO cells. As for the experimental part:
as §3

Experiment [9] addresses T4, full-length human SIRPβ1 (NP_006056.2) …. In words: flow cytometry, Expi-CHO cells. As for the experimental part:
These cells are blocked with donkey IgG and incubated on ice with increasing concentrations of antibodies for 60 minutes, washed and stained with AF647-conjugated donkey F(ab′)₂ anti-human IgG antibodies. Stained cells are washed, fixed, and analyzed by flow cytometry. Median fluorescent intensity is determined and used as a measure of antibody binding.

Experiment [10] deals with T7, full-length human SIRPγ E→D on Expi-CHO cells (human, UniProt Q9P1W8 29-387).
T7 construct: the entry already carries the change (PENV to PDNV)
Put plainly: flow cytometry, Expi-CHO cells expressing full-length human SIRPγ E→D. As for the experimental part:
Expi-CHO parental cells are transduced with lentiviruses containing either full-length wild-type human SIRPγ ([…]) or full-length human SIRPγ with amino acid point mutations (Table 64) and sorted to achieve matching expression levels. These cells are blocked with donkey IgG and incubated on ice with increasing concentrations of antibodies for 60 minutes, washed and stained with AF647-conjugated donkey F(ab′)₂ anti-human IgG antibodies. Stained cells are washed, fixed, and analyzed by flow cytometry. Median fluorescent intensity is determined and used as a measure of antibody binding.

Experiment [11] concerns the target T8, full-length human SIRPβL (NP_001129316.1) on cells (human, UniProt Q5TFQ8 30-398).
T8 construct: one molecule for U937 SIRPα-KO transfectants (NP_001129316.1) and Expi-CHO transfectants (Q5TFQ8); also called SIRPβ1v3; βL WT
Put plainly: flow cytometry, U937 SIRPα-KO transfectants. As for the experimental part: as §2

B1: Antibody B (antibody, human IgG1, kappa, L234A L235A, V domains shown)
VH: QVQLVQSGAEVKKPGASVKVSCKASGYTFTGNYMHWVRQAPGQGLEWMGWINPNSGGTNYAQKFQGRVTMTRDTSISTAYMELSRLRSDDTAVYYCVSGSGWYENYYYYGMDVWGQGTTVTVSS
VL: DIQMTQSPSSVSASVGDRVTITCRASQGISSWLAWYQQKPGKAPKLLIYAESSLQSGVPSRFSGSGSGTDFTLTISSLQPEDFATYYCQQANSFPLTFGGGTKVEIKR
Take B1: in experiment [1], the IC50 was 6 nM. The half-maximal effective concentration (EC50) in [2] stood at 22.3 nM; in experiment [3] it was 14.2 nM; in [4] it was 12 nM. Also, the binding result in [5] is “no binding (tested: about 67 nM)”.

B2: Antibody D (antibody, human IgG1, kappa, L234A L235A, V domains shown)
VH: EVQLVESGGGLVQPGGSLRLSCAASGFTFSSFDMHWVRQPTGKGLEWVSTIGIAGDTYFPGSVKGRFTISRENAKNSLYLQMNSLRAGDTAVYYCARGGNWDDALDIWGQGTMVTVSS
VL: DIQMTQSPSSLSASVGDRVTITCRASQDINNYLAWFQQKPGKAPKSLIYTASSLQSGVPSKFSGSGSGTDFTLTISSLQPEDFATYYCQQYNTYPYTFGQGTKLEIKR
Turning to B2, the half-maximal effective concentration (EC50) turned out to be 0.4 nM in [6]; 9.6 nM in [7]; 6.6 nM in [8]; 0.3 nM in experiment [2]; 0.2 nM in experiment [9]; 0.5 nM in experiment [3]. The molecule further yielded a concentration giving a half-maximal response (EC50) in experiment [4] of 0.7 nM. In addition, the IC50 in [1] was determined as 0.3 nM. Further, the binding result in experiment [5] is on record as “no binding (tested: about 67 nM)”.

B3: Antibody A (antibody, human IgG1, kappa, L234A L235A)
heavy: not shown
light: DIQMTQSPSSLSASVGDRVTITCRASQDINNYLAWFQQKPGKAPKSLIYTASSLHSGVPSKFSGSGSGTDFTLTISSLQPEDFATYYCQQYVSYPYTFGQGTKLEIKRTVAAPSVFIFPPSDEQLKSGTASVVCLLNNFYPREAKVQWKVDNALQSGNSQESVTEQDSKDSTYSLSSTLTLSKADYEKHKVYACEVTHQGLSSPVTKSFNRGEC
Turning to B3, the EC50 in [6] worked out at 0.2 nM; in [9] it was 1.6 nM. The binding result in experiment [10] and in [5] was “no binding (tested: about 67 nM)” throughout.

B4: Antibody C (antibody, human IgG1, kappa, L234A L235A, V domains shown)
VH: EVQLVESGGGLVQPGGSLRLSCAASGFTFSSYDMHWVRQATGKGLEWVSVIGIAGDTYYPGSVKGRFTISRENAKNSLYLQMNSLRVGDTAVYYCARGGSWDDAFDIWGQGTMVTVSS
VL: DIQMTQSPSSLSASIGDKVTITCRASQDINNYLAWFQQKPGKAPKSLIYTASSLQSGVPSKFSGSGSGTDFTLTISSLQPEDFATYYCQQYVSYPYTFGQGTKLEIKR
Regarding B4, the EC50 was found to be 0.5 nM in experiment [6]; 2.7 nM in [7]; 1.1 nM in experiment [8]; 0.3 nM in experiment [2]; 0.2 nM in experiment [9]; 0.5 nM in [3]. Moreover, the midpoint of the response in [4], the EC50, lay at 1 nM. For the same molecule, the IC50 in [1] turned out to be 0.3 nM.

B5: Antibody A10 (antibody, human IgG1, kappa, L234A L235A)
heavy: not shown
light: DIQMTQSPSSLSASVGDRVTITCRASQDINNYLAWFQQKPGKAPKSLIYTASSLHSGVPSKFSGSGSGTDFTLTISSLQPEDFATYYCQQYVSYPYTFGQGTKLEIKRTVAAPSVFIFPPSDEQLKSGTASVVCLLNNFYPREAKVQWKVDNALQSGNSQESVTEQDSKDSTYSLSSTLTLSKADYEKHKVYACEVTHQGLSSPVTKSFNRGEC
Regarding B5, the EC50 turned out to be 0.2 nM in experiment [6] and 1.6 nM in [9]. Further, the binding result in experiment [10] is “no binding (tested: about 67 nM)”.

B6: Anti-SIRPα antibody KWAR23 (antibody, V domains shown)
VH: EVQLQQSGAELVKPGASVKLSCTASGFNIKDYYIHWVQQRTEQGLEWIGRIDPEDGETKYAPKFQDKATITADTSSNTAYLHLSSLTSEDTAVYYCARWGAYWGQGTLVTVSS
VL: QIVLTQSPAIMSASPGEKVTLTCSASSSVSSSYLYWYQQKPGSSPKLWIYSTSNLASGVPARFSGSGSGTSYSLTISSMEAEDAASYFCHQWSSYPRTFGAGTKLELK
As for B6, the EC50 in [11], in experiment [6], in experiment [7], in experiment [8], in experiment [2] and in [9] was 0.2 nM in each case. For the same molecule, the concentration giving a half-maximal response (EC50) in experiment [3] was 0.5 nM; in experiment [4] it was 1 nM. For the same molecule, the IC50 in [1] amounted to 0.6 nM.

B7: Antibody E (antibody, human IgG1, kappa, L234A L235A)
heavy: not shown
light: DIVMTQSPLSLPVTPGEPASISCKSSQSLLYSNGYNYLDWYLQRPGQSPQLLIYLGSNRASGVPDRFSGSGSGTDFTLKISRVEAEDVGVFYCMQALQTPLTFGGGTKVEIKRTVAAPSVFIFPPSDEQLKSGTASVVCLLNNFYPREAKVQWKVDNALQSGNSQESVTEQDSKDSTYSLSSTLTLSKADYEKHKVYACEVTHQGLSSPVTKSFNRGEC
With B7, the EC50 in [11] turned out to be 0.3 nM; in [7], 0.4 nM; in experiment [8], 0.4 nM; in [2], 0.4 nM; in [3] it was 0.9 nM; in experiment [4] it was 2 nM. Also, the binding result in [10] and in experiment [5] was “no binding (tested: about 67 nM)” in each case.

B8: Antibody E22 (antibody, human IgG1, kappa, L234A L235A, V domains shown)
VH: QVQLQESGPGLVKPSETLSLTCTVSGGSIRDYYWSWIRQPPGKGLEWIGFIYYNGRTFYQSSLKSRVTISLDTSKNQFSLKMTSVTAADTAVYYCARVRAYSGIGLDGTDVWGQGTTVTVSS
VL: DIVMTQSPLSLPVTPGEPASISCRSSQSLLYSTGYTYLDWYLQRPGQSPQLLIYGGSSRASGVPDRFSGSGSGTDFTLKISRVEAEDVGVFYCGQALQTPLTFGQGTKVEIKR
With B8, the EC50 is 0.6 nM in experiment [11], 0.8 nM in experiment [7] and 0.6 nM in experiment [8]. The binding result in experiment [10] is listed as “no binding (tested: about 67 nM)”.

The term IC50 denotes the midpoint of a concentration-inhibition curve. The term EC50 denotes the concentration needed to bring the measured effect to its halfway point. Read a low EC50 as an effect from little substance.
